Measurements as given in publication PMC11995678.
Read-outs that look alike come from different tables or passages of the source.

Tests used:
[1] = target: T1, His662 (UniProt position 662, MKQVKHIPESK); assay: NMR; settings: 35 °C (default for NMR experiments; not restated for the titration), 50 mM NaCl, 20 mM Tris, 10 mM CHAPS, no CaCl2, formate and imidazole included as internal pH indicators, pH adjusted with 1 M HCl, Ca2+-free (apo), Ca2+-binding-deficient mutant, folded
[2] = target: T1, His662; settings: cited from earlier work

Substance | pKa [1] | pKa ([2]; Ca2+-bound (holo) WT) | pKa ([2]; Ca2+-free (apo) WT)
LETM1 F-EF-hand domain D676A/N678A (AEA) mutant (Homo sapiens; D676A;N678A) | 6.58 ± 0.06 | – | –
LETM1 F-EF-hand domain, wild type (Homo sapiens) | – | ~6.28 | ~6.39
